For eleven substances, Kd results are on record in paper PMC4168798.

Holding throughout (test): fluorescence polarisation
Background: In fluorescence polarisation assays a small probe gives low polarisation when free and higher when bound to something large.

The target in assay [1] is Bcl-w (c-myc-tagged, without the C-terminal trans-membrane region) (human).
Assay [2] addresses Bcl-2 (c-myc-tagged, without the C-terminal trans-membrane region) (human).
In assay [3] the target is Bcl-xL (c-myc-tagged, without the C-terminal trans-membrane region) (human).
The target in assay [4] is Mcl-1 (c-myc-tagged, without the N-terminal domain and the C-terminal trans-membrane region) (human).
Assay [5] has as its target Bfl-1 (c-myc-tagged, without the C-terminal trans-membrane region) (human).

Chain of Bcl-w (c-myc-tagged, without the C-terminal trans-membrane region) (human) (Q92843 1-164): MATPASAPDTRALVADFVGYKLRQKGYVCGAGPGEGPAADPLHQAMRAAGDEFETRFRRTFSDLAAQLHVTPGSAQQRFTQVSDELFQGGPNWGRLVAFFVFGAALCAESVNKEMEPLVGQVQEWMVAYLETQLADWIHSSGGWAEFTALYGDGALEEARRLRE

With “Bim_A2eT, N-terminal fluorescein (peptide; other documents disagree on this pair)”, in assay [1], the Kd (as a rule, the constant that tells how readily two partners part at equilibrium) is 39 nM.
On the same count and under the same terms, then “Bim_A2eT_I2dM, N-terminal fluorescein (peptide; other documents disagree on this pair)”, with 260 nM; and “Bim_A2eT_E2gG, N-terminal fluorescein (peptide; other documents disagree on this pair)”, with 94 nM.
Consider “Bim_A2eT_E2gG, N-terminal fluorescein (peptide)”, for which the Kd came to 150 nM in assay [2], 37 nM in assay [3] and 1.6 nM in assay [4].
Consider “Bim 23-mer, N-terminal fluorescein (peptide)”, for which the dissociation constant Kd in assay [3] was 2.6 nM; in assay [5], under 1 nM; in assay [4], under 1 nM.
On to “Bim_A2eT, N-terminal fluorescein (peptide)”, for which the Kd in assay [2] is 43 nM; in assay [3] it was 17 nM; in assay [5] it was 31 nM; in assay [4] it was under 1 nM.
In the same order, the values of “Bim_A2eT_I2dM, N-terminal fluorescein (peptide)” are 210 nM, 83 nM, 150 nM and under 1 nM.
“Bim_A2eT_I3dL, N-terminal fluorescein (peptide; other documents disagree on this pair)” had a Kd in assay [1] of 12 nM.
Still for that read-out and setting: then “Bim_A2eT_F4aI, N-terminal fluorescein (peptide; other documents disagree on this pair)”, with 16 nM.
As for “Bim_A2eT_I3dL, N-terminal fluorescein (peptide)”, the Kd was 37 nM in assay [2], 7.6 nM in assay [3], 120 nM in assay [5] and under 1 nM in assay [4].
As for “Bim_A2eT_F4aI, N-terminal fluorescein (peptide)”, the Kd was 150 nM in assay [2], 110 nM in assay [3], 7.9 nM in assay [5] and under 1 nM in assay [4].
